According to the supplement of paper PMC9170038:

Tested on: MS2 coat protein
Assay: apparent KD of MS2 coat protein; designed switch direction (-1 OFF switch, 1 ON switch): 1; higher = weaker reporter binding
Procedure, shortened: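 Designed RNA switches sharing common flanks were transcribed on Illumina chips by stalled E. coli RNA polymerase. They were titrated with SNAP-549-labelled MS2 coat protein, from 0.7 or 1.5 nM doubling to 3 µM, in Tris-HCl pH 7.5 buffer with KCl, MgCl2, BSA, DTT, tRNA and Tween-20. Titrations ran without input, with 200 uM small-molecule ligand, or with an oligonucleotide input. The apparent KD of each design is the median over its clusters, after curve-fitting of normalised cluster fluorescence.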

[1] = input ligand: microRNA oligo, concentration not stated
[2] = Eterna round: R95, input ligand: FMN 200 uM
[3] = Eterna round: R95, input ligand: microRNA oligo, concentration not stated
[4] = Eterna round: R95, input ligand: none

Sequence	apparent KD of MS2 coat protein (input ligand: FMN 200 uM) [nM]	apparent KD of MS2 coat protein [1] [nM]	apparent KD of MS2 coat protein (input ligand: none) [nM]	apparent KD of MS2 coat protein [2] [nM]	apparent KD of MS2 coat protein [3] [nM]	apparent KD of MS2 coat protein [4] [nM]
GCUCGAUGAGCGUUUUACAUGAGGAUCACCCAUGUACGUGGGCAGGAUAUUUACGUGCGGUGUGUAGAGAAGGGCCCAUCGAGC [SameState NG3 #70] (Eterna round: R96, puzzle: Same State NG 3)	48.3	243	279	–	–	–
GCUCGCGGCACAGGAUAUGGGUGCCUGUACAUGAGGAUCACCCAUGUUAAGGGACGGAUUACGAACCAGAAGGGUGAGGCGGGC [Axearisar] (Eterna round: R96, puzzle: Same State NG 2)	63.8	120	768	–	–	–
GCUCGGCUGAUGGCCCACAUGAGGAUCACCCAUGUGACUGGGCAGGAUAUCUAGAUGCAGGAUGUAGAGAAGGGCCUGCCGAGC [SameState NG3 #41] (Eterna round: R96, puzzle: Same State NG 3)	358	98.8	155	–	–	–
GCUCGUAUCACAGCCAACAUGAGGAUCACCCAUGUAUGUUGGUAGGAUAUCUAUAUUAAGGAUAUAGAGAAGGGCCGAACGAGC [SameState NG3 #11] (Eterna round: R96, puzzle: Same State NG 3)	121	126	145	–	–	–
GCUCGUGGUAUUGUCUACAUGAGGAUCACCCAUGUAGGUGCGGAGGAUAUCUACGUGUCUCAUGUAGAGAAGGCCGUCACGAGC [SameState NG3 #98] (Eterna round: R96, puzzle: Same State NG 3)	20.3	36.2	89.4	–	–	–
GCUGCAAAGGCAGGAUAUGGGUUCAGAGCGGAAGUGCGCUUUGACACAUGAGGAUCACCCAUGUCCCAGAAGGGCCCAAGCGGC [Ateanso] (Eterna round: R96, puzzle: Same State NG 2)	21.2	120	178	–	–	–
GCUGCAAGGGCAGGAUAUGGGUCCAAAGCGCAAGUGCGCUUUGGUACAUGAGGAUCACCCAUGUCCCAGAAGGGCCCAAGCGGC [Quzaceza] (Eterna round: R96, puzzle: Same State NG 2)	15.6	83.1	140	–	–	–
GCUGCAAUUAACGCCUACAUGAGGAUCACCCAUGUAUGUAGGCAGGAUAUCGUUUGCAAAGCAAACGAGAAGGGCCGUAGUAGC [Mat - Same State NG 3 - JL Mod - D34] (Eterna round: R96, puzzle: Same State NG 3)	28.9	48.9	73.8	–	–	–
GCUGCAAUUAACGCCUACAUGAGGAUCACCCAUGUAUGUAGGCAGGAUAUCGUUUGCUUUGCAAACGAGAAGGGCUGUAGUAGC [JL SSNG3 1.13] (Eterna round: R96, puzzle: Same State NG 3)	67.2	84.5	108	–	–	–
GCUGCAUGGGCAGGAUAUGGGUUCAGAGCGGAAGUGCGCUUUGAUACAUGAGGAUCACCCAUGUCCCAGAAGGGCCCAAGCGGC [Laleinza] (Eterna round: R96, puzzle: Same State NG 2)	18.4	53.7	97.3	–	–	–
GCUGGAACUCACAUGAGGAUCACCCAUGUUCCGGAAACGGCACAGGAUAUCUGUCCGAAAAGGUCAGAGAAGGGUGGAACCAGC [Fiskers NG3ss - 88] (Eterna round: R96, puzzle: Same State NG 3)	189	43.5	90.4	–	–	–
GCUUGACAUGAGGAUCACCCAUGUCAUGCGGACACAGGAUAUCGUGGCCUGAAGCCGUCAUGAGAAGGGUGACCAA [Bibiedce] (puzzle: Same State 1)	–	–	–	28.3	17.3	17.6
GCUUGCGACGCAGGAUAUGGGUGCCUGUACAUGAGGAUCACCCAUGUUAAGGAACGGAUUACGUCUCAGAAGGGCGUGGCAGGC [Ceerce Mod] (Eterna round: R96, puzzle: Same State NG 2)	37.1	31.1	1250	–	–	–
GGAAACAACACAGGAUAUCCAGAUGAUGAUGAAGGAGAAGGGUGUGCCCACAUGAGGAUCACCCAUGUUACAACGAAUAGAUAA [racquet 1] (Eterna round: R96, puzzle: Same State NG 1)	457	666	1240	–	–	–
GGAAAGAGGUUAGGAUAUGCAUGUCUGGGACAUGAGGAUCACCCAUGUAAUAGAAGAAAUCUACAGUAGAAGGGACAAGGAAGG [AK SSNG2-V2-7] (Eterna round: R96, puzzle: Same State NG 2)	89.9	62.7	75.2	–	–	–
GGAAGGAAGUCAGGAUAUGAAUGGAAAGUACAUGAGGAUCACCCAUGUUAUGGAGGAAGGAAACGUUAGAAGGGAUAAGGAAGG [AK SSNG2-V2-1.1] (Eterna round: R96, puzzle: Same State NG 2)	67.8	45.2	63.7	–	–	–
GGAAUAUGAUGUUACAUGAGGAUCACCCAUGUAGUAAUAACUAAGGAUAUCUGUUAAGAUAACUAAGAGAAGGUAGGAUCAUAA [AK SSNG3-V2-8.4] (Eterna round: R96, puzzle: Same State NG 3)	22.2	20.5	22.1	–	–	–
GGAAUAUGAUGUUACAUGAGGAUCACCCAUGUAGUGAUAACUAAGGAUAUCUGAAAGGAAGGAGAGGAGAAGGUAGGAUCAUAA [AK SSNG3-V2-13] (Eterna round: R96, puzzle: Same State NG 3)	40.1	35.3	53.2	–	–	–
GGAAUAUUUACAGGAUAUGAUUUGUAAAUUCGAUCAGAAGGGUAGAUGUCUUACACGGUUUGUUACAUGAGGAUCACCCAUGUU [SameState NG1 #11] (Eterna round: R96, puzzle: Same State NG 1)	–	109	–	–	–	–
GGACGUCAAUAUGAAUUCCCACAUGAGGAUCACCCAUGUCAUGAGGAUAUGGAUCCUAAUUGGAUCCAGAAGGCAUGGACGUCC [Fiskers NG3ss - 37] (Eterna round: R96, puzzle: Same State NG 3)	17.8	13	17.8	–	–	–
GGAGAACAUGAGGAUCACCCAUGUAAGAGAAGUGUAGGAUAUGUGAGGAGCAGAGGAGGAACAGAAGGACAUGGAG [JR_SS!_Sub071] (puzzle: Same State 1)	–	–	–	29.8	41	58.3
GGAGAACAUGAGGAUCACCCAUGUAAGCGUUAGCUAGGAUAUGCGGGAAGGAAGAGAGAAGCAGAAGGAGUCGGUA [JR_SS1_Sub032] (puzzle: Same State 1)	–	–	–	34.9	39.4	67.8
GGAGAACAUGAGGAUCACCCAUGUGAGAGGGAUGUAGGAUAUGUGAGGAGUAGAGGAGGGACAGAAGGACAGAGAU [JR_SS!_Sub069] (puzzle: Same State 1)	–	–	–	28	62.9	52.6
GGAGAGAGAGCGCAGGAUAUUUGAGGAGAAACAUGAGGAUCACCCAUGUGAGAGAGAGAGGAGAAAGAGAAGGGUGAGAGAGAGG [Altered State 2-15 - Jieux - Same State 2] (puzzle: Same State 2)	–	–	–	41.9	52.9	57.8
GGAGCCAAGGCAGGAUAUUCAUAUUAAUAACAUGAGGAUCACCCAUGUAAGGCCAGAAGGCCUUGGGAGAAGGGCCAUGGCUCG [Xeonanis - 13 mod2] (Eterna round: R96, puzzle: Same State NG 2)	21.4	70.4	106	–	–	–
GGAGCCAAGGCAGGAUAUUCAUAUUAAUAACAUGAGGAUCACCCAUGUUGGGCCAGAAGGCCUUGGGAGAAGGGCCAUGGCUCG [Xeonanis - 13 mod17] (Eterna round: R96, puzzle: Same State NG 2)	20.1	24.7	36.5	–	–	–
GGAGCCAAGGCAGGAUAUUCAUAUUAAUUACAUGAGGAUCACCCAUGUUGGGCCAGAAGGCCUUGGGAGAAGGGCCAUGGCUCG [Xeonanis - 13 mod18] (Eterna round: R96, puzzle: Same State NG 2)	27.1	56.5	84	–	–	–
